# Results: paper PMC2572730, “Structural Basis for the Recognition of Histone H4 by the Histone-Chaperone RbAp46” (Structure(London, England:1993), 2008)
# B1: L30Y: RbAp46 mutated in the hydrophobic surface of helix 1 (protein)
# chain: MASKEMFEDTVEERVINEEYKIWKKNTPFYYDLVMTHALQWPSLTVQWLPEVTKPEGKDYALHWLVLGTHTSDEQNHLVVARVHIPNDDAQFDASHCDSDKGEFGGFGSVTGKIECEIKINHEGEVNRARYMPQNPHIIATKTPSSDVLVFDYTKHPAKPDPSGECNPDLRLRGHQKEGYGLSWNSNLSGHLLSASDDHTVCLWDINAGPKEGKIVDAKAIFTGHSAVVEDVAWHLLHESLFGSVADDQKLMIWDTRSNTTSKPSHLVDAHTAEVNCLSFNPYSEFILATGSADKTVALWDLRNLKLKLHTFESHKDEIFQVHWSPHNETILASSGTDRRLNVWDLSKIGEEQSAEDAEDGPPELLFIHGGHTAKISDFSWNPNEPWVICSVSEDNIMQIWQMAENIYNDE
# modifications: 35S-labeled
# notes: RbAp46 mutated in the hydrophobic surface of helix 1
# B2: E356Q + D357N + E359Q + D360N: RbAp46 mutated in the charged PP loop (protein, UniProt Q16576 2-425, looked up, variant E356Q D357N E359Q D360N)
# Histone-binding protein RBBP7: ASKEMFEDTVEERVINEEYKIWKKNTPFLYDLVMTHALQWPSLTVQWLPEVTKPEGKDYALHWLVLGTHTSDEQNHLVVARVHIPNDDAQFDASHCDSDKGEFGGFGSVTGKIECEIKINHEGEVNRARYMPQNPHIIATKTPSSDVLVFDYTKHPAKPDPSGECNPDLRLRGHQKEGYGLSWNSNLSGHLLSASDDHTVCLWDINAGPKEGKIVDAKAIFTGHSAVVEDVAWHLLHESLFGSVADDQKLMIWDTRSNTTSKPSHLVDAHTAEVNCLSFNPYSEFILATGSADKTVALWDLRNLKLKLHTFESHKDEIFQVHWSPHNETILASSGTDRRLNVWDLSKIGEEQSAQNAQNGPPELLFIHGGHTAKISDFSWNPNEPWVICSVSEDNIMQIWQMAENIYNDEESDVTTSELEGQGS
# Test system: GST-histone H4 1–48
# Assay: Pull-down of 35S-labeled RbAp46 mutants with GST-histone H4 1–48
# Format: binding
# Details: autoradiogram, 300 mM NaCl, 20 mM Tris pH 8.0, 5 mM DTT, 0.1% (v/v) NP-40
# Text: Figure 2 Histone H4 Recognition by the RbAp46-Binding Pocket (A) Electrostatic surface potential of RbAp46 contoured and color coded at −91 kT (red) and +91 kT (blue). […] The histone H4 peptide is shown as a stick model. The histone H4-binding pocket in RbAp46 is mainly formed by the negatively charged PP loop (which terminates in Pro-362 and Pro-363) and a hydrophobic surface on the N-terminal α helix (helix 1). The interaction of histone H4 residues (Gln-27, Lys-31, Ile-34, Arg-35, Arg-36, Leu-37, Arg-39, and Arg-40) is shown. (B) Detailed view showing the interactions of the hydrophobic Ile-34 and Leu-37 histone H4 residues with Phe-29 and Leu-30 in helix 1 of RbAp46, as well as the positively charged Arg-36, Arg-39, and Arg-40 histone H4 residues with the backbone carbonyl groups in the PP loop and a cluster of acidic residues (Glu-356, Asp-357, and Asp-360) in RbAp46. […] In each experiment, the input lane contains 30% of the ^35S-labeled RbAp46 protein used in each of the pull-down assays. The experiments were carried out in 300 mM NaCl, 20 mM Tris (pH 8.0), 5 mM DTT, and 0.1% (v/v) NP-40.
# Recombinant histone H4 and RbAp46 proteins were expressed and purified as described previously ([Verreault et al., 1998; Berger et al., 2004]). Detailed procedures for the generation of the RbAp46/histone H4 peptide and recombinant histone H4 complexes can be found in the Supplemental Data. […]
row,Molecule,Effect of RbAp46 mutation on interaction with histone H4
1,B1,disrupt the interaction with histone H4
2,B2,disrupt the interaction with histone H4
